We go through two substances from publication PMC12108596, “Functional Characterization of MIP_07528 of Mycobacterium indicus pranii for Tyrosine Phosphatase Activity Displays Sensitivity to Oxidative Inactivation and Plays a Role in Immunomodulation” (Biology, 2025).

In this data set the test system is O=[N+]([O-])c1ccc(OP(=O)(O)O)cc1. Nature of the data set: purified protein.
Setting [1] is: pH 7.5 (20 mM Tris, 150 mM NaCl), 37 °C, 2-8 mM pNPP.

For orientation: Km means the concentration of substrate that gives half-maximal velocity. As a reminder, the kcat is the number of substrate molecules converted per active site and unit of time at saturation.

For the substance “rMIP_07528 (rPtpB-MIP, rMIPPtpB) (Mycobacterium intracellulare ATCC 13950)”, under setting [1], the Km is 300 µM and the kcat amounted to 0.005 s⁻¹.
As to “rPtpB-Mtb (rMTBPtpB) (Mycobacterium tuberculosis H37Rv)”, the Km (pH 7.5, 37.0 °C) was 1010 µM.
